Entries after “also recorded” stand apart in the source; their conditions may differ.
B1: P100NSP-2: PEG100, non-specific attachment to ligand 2; bioconjugated to phage wrapped with K14-Cys (conjugate)
peptide 1: SECVEVFQNSCDW
peptide 2: KKKKKKKKKKKKKKC
chain: AEGDDPAKAAFNSLQASATEYIGYAWAMVVVIVGATIGIKLFKKFTSKAS
B2: P100SP-2: PEG100, specific attachment to ligand 2 (conjugate)
peptide 1: SECVEVFQNSCDW
peptide 2: KKKKKKKKKKKKKKC
chain: B1 chain
B3: P100SP-P4-2+P100SP-P4-1: dual PEGylated ligand combination with PEG4 linker, specific attachment, 2:1 ratio, on phage (conjugate)
peptide 1: SECVEVFQNSCDW
peptide 2: CALCEFLG
peptide 3: KKKKKKKKKKKKKKC
chain: B1 chain
B4: P100SP-P4-2: PEG100, specific attachment, PEG4 linker, ligand 2 (conjugate)
peptide 1: SECVEVFQNSCDW
peptide 2: KKKKKKKKKKKKKKC
chain: B1 chain
B5: 2:1 mixture of P100NSP-2 and P100NSP-1: dual PEGylated ligand combination wrapped on phage (conjugate)
peptide 1: SECVEVFQNSCDW
peptide 2: CALCEFLG
peptide 3: KKKKKKKKKKKKKKC
chain: B1 chain
B6: P100NSP-P4-2+P100NSP-P4-1: dual PEGylated ligand combination with PEG4 linker, non-specific attachment, on phage (conjugate)
peptide 1: SECVEVFQNSCDW
peptide 2: CALCEFLG
peptide 3: KKKKKKKKKKKKKKC
chain: B1 chain

Biological target: T1, PSMA on LNCaP cells (Homo sapiens, UniProt Q04609)
T1 construct: specific recognition of PSMA on the surface of LNCaP cells; endogenous in cells; host or cells: LNCaP (also LNCaP CSS); glutaraldehyde-fixed on the plate
Assay: Cell-based phage ELISA, recognition of cell surface PSMA
Conditions: PEGylated ligands on phage wrapped with K14-Cys
Experimental: The cell-based ELISA was performed as previously described by Watanabe et. al. with several modifications. See e.g., Watanabe, K.; et al., Clin. Biochem. 2001, 34, 291-295. Cells were detached with Trypsin-EDTA, resuspended in PBS, and then collected by centrifuging at 1200 rpm for 5 min. The cells were further washed with PBS and then concentrated as in the previous step. The concentration of the cells was adjusted to 4.5×10^6 cells/mL in PBS using a hemocytometer, and 100 μL was aliquoted to specific wells of a 96-well microtiter (Nunc Maxisorp). Next, 50 μL of 0.15% of glutaraldehyde in PBS was added to the wells at 4° C., and the solution was gently mixed by pipetting. The ELISA plate was then centrifuged at 1200 rpm for 10 min at 4° C., followed by overnight incubation at 4° C. The cell solution was gently removed, and the wells were blocked with 200 μL/well of blocking buffer containing 100 mM glycine, 1% gelatin and 0.1% w/v BSA (bovine serum albumin) in PBS. The plate was incubated overnight (˜20-22 h) at room temperature.
Separately, phage wrapped with PEG and PEGylated ligands were prepared. Phage (10 nM in 100 μL) and 1 μL of K14-alkyne (525 μM in water) were thoroughly mixed by pipetting ˜25 times. For phage wrapped with PEGylated ligands, phage were mixed with 0.75 μL of K14-Cys (525 μM in water). For mixed wrapping on phage surface, 0.5 μL of K14-alkyne was pre-mixed with 0.75 μL of K14-Cys, and then mixed with 100 μL of 10 nM phage. The solution was shaken at room temperature for 15 min on an orbital shaker. Next, 2 μL of PEGylated ligand (625 μM in water) was added to the appropriate wells. For the dual ligand combinations, the PEGylated ligands were pre-mixed in the desired ratio (2:1 for example), and then 2 μL of the mixture was added to the appropriate wells. The solutions were gently mixed by pipetting, and incubated overnight at 4° C.
Next, the click reaction was performed, as previously described, but with the following modifications.^1,2 Triethylammonium acetate was added to a final concentration of 50 mM, followed by the addition of 1.5 μL of 1 mM azide-functionalized PEG. The solutions were mixed by pipetting. Next, ascorbic acid was added to a final concentration of 1 mM and the solutions were mixed by gently pipetting. Next, copper sulfate was added to a final concentration of 1.5 mM, followed by pipetting to mix the solutions. Water was added to the other wells to maintain a consistent phage concentration. The plate was incubated at room temperature for 30 min.
The wells on the ELISA plate were then incubated with the phage samples. The blocking buffer was removed and the wells were gently washed two times with PBS. Next, the phage solution was added to the respective wells and incubated for 45 min. The phage solution was removed, and the wells were washed three times with 300 μL/well of wash buffer PT (0.05% TWEEN-20 in PBS), once with PBS, and then incubated with horseradish-peroxidase-conjugated anti-M13 antibody (100 μL/well, 1:5000 dilution in PBS) for 40 min. The wells were washed three times with PT and once with PBS. The plate was then developed by incubating with HRP substrate solution (100 μL/well; 1 mg/mL o-phenylenediamine dihydrochloride and 0.02% w/v H2O2) in citric acid buffer (50 mM citric acid, 50 mM Na2HPO4, pH 5.0). The HRP activity was measured spectrophotometrically at 450 nm using a microtiter plate reader (Bio-Tek). The absorbance at 630 nm was subtracted from the absorbance at 450 nm to eliminate background.

T1 sequence (Q04609 whole entry): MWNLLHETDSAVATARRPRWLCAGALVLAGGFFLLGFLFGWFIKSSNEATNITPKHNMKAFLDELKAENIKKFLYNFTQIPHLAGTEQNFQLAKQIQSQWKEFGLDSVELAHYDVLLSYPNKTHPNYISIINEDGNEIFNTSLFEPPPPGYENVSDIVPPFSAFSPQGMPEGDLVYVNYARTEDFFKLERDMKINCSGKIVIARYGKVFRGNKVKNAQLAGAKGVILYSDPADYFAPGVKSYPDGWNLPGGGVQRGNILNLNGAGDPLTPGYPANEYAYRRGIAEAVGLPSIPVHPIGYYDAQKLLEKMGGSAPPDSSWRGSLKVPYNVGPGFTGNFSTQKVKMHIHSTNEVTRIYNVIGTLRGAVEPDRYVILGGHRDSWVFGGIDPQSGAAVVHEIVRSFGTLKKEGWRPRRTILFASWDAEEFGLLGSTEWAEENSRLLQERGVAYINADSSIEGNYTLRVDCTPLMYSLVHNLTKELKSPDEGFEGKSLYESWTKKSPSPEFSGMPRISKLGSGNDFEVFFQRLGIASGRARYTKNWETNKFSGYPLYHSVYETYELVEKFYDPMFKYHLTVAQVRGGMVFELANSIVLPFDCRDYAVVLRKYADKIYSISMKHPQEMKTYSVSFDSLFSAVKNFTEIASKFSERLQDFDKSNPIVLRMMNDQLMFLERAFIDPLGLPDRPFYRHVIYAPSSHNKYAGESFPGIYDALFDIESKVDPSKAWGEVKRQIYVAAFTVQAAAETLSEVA

| Molecule | relative binding affinity for cell surface PSMA on LNCaP cells | relative binding affinity for cell surface PSMA on LNCaP cells (listed as P100NSP-2+P100NSP-1) |
| --- | --- | --- |
| B1 | higher affinity for LNCaP cells compared to P100NSP-1 | – |
| B2 | higher binding affinity for cell surface PSMA than P100NSP-2 | – |
| B3 | significant increase in binding affinity | – |
| B4 | most effective PEGylated ligand for recognition of PSMA on the cell surface | – |
| B5 | maximize the recognition of PSMA on LNCaP cells | modest improvement |
| B6 | drop in affinity; also recorded: affinity equivalent to P100NSP-P4-2 | – |
